The target in one data set is T1, ZRANB2-F2 (Homo sapiens, UniProt O95218 O95218:65-95).
T1 chain: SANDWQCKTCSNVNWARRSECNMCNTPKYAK
Nature of the data set: FP; GST-F2; 10 mM Tris pH 8.0, 50 mM KCl, 5 mM MgCl2, heparin, 25 C. The note with it: tags: GST fusion (FA); label: 5'-fluorescein (FA) or 32P (gel shift). The method, then: (§1) Fluorescence Anisotropy titrations e.g., as shown in FIGS. 1D-F, 8 and 35, were carried out using standard protocols. In brief, 5′-Fluorescein-labeled RNA oligonucleotides were quantified by A₂₆₀, correcting for fluorescein absorbance by using A₄₉₃. For single-site experiments, the sequence […] (SEQ ID NO: 28), or single base mutants thereof, was used. For double-site experiments, two AGGUAA sites were separated by different length sequences as indicated, and the total oligonucleotide lengths were kept constant by the symmetrical addition of adenines to each end. The anisotropy titrations were performed with a starting RNA concentration of 50 nM in a buffer comprising either 10 mM Tris (pH 8.0), 50 mM KCl, 5 mM MgCl₂, 0.05 mg/mL heparin, and 1 mM DTT (for GST fusion constructs) or 10 mM Mops (pH 7.3), 50 mM NaCl, 0.05 mg/mL heparin, and 1 mM DTT (for ZRANB2-F12). RNasin (Promega) was also added to the protein solution to a concentration of 2 units/μL. Protein was titrated into this starting solution and anisotropy values measured on a Cary Eclipse fluorescence spectrophotometer fitted with manual polarizer and long-pass filters set to 475 and 515 nm for excitation and emission, respectively. […] Association constants were determined by nonlinear least squares regression analysis using a 1:1 binding model.
A general note: A gel shift assay detects complexes by their altered migration in electrophoresis.

In a further data set the target is T2, ZRANB2-F1 (Homo sapiens, UniProt O95218 O95218:1-45).
T2 chain: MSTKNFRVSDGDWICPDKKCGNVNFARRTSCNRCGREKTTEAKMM
In words: FP; GST-F1; 10 mM Tris pH 8.0, 50 mM KCl, 5 mM MgCl2, heparin, 25 C. The note with it: tags: GST fusion; label: 5'-fluorescein (FA) or 32P (gel shift). The protocol: as §1, with “The anisotropy titrations were performed with a starting RNA concentration of 50 nM in a buffer comprising either 10 mM Tris (pH 8.0), 50 mM KCl, 5 mM MgCl₂, 0.05 mg/mL heparin, and 1 mM DTT (for GST fusion constructs) or 10 mM Mops (pH 7.3), 50 mM NaCl, 0.05 mg/mL heparin, and 1 mM DTT (for ZRANB2-F12). RNasin (Promega) was also added to the protein solution to a concentration of 2 units/μL.” left out
Constructs of the two individual domains, F1 (FIG. 2, residues 1-45) and F2 (FIG. 2, residues 65-95), were cloned expressed and purified as GST fusions described in section 1.2 above, and tested their ability to bind ssRNA by fluorescence anisotropy as described in section 1.5 above, using a ssRNA oligonucleotide bearing a 5′ fluorescein tag and containing a single AGGUAA site.

The target of data set [1] is T3, ZRANB2-F12 (Homo sapiens, UniProt O95218 O95218:1-95). Nature of the data set: EMSA; 10 mM Mops pH 7.2, 50 mM KCl, 5 mM MgCl2, heparin, 4 C. The note with it: tags: GST removed for FA, gel shift and SPR; label: 5'-fluorescein (FA) or 32P (gel shift). The method, then: Gel Shift assays e.g., FIGS. 1B, 32A, were carried out using standard protocols. In brief, oligonucleotides were 5′ end-labelled with T4 polynucleotide kinase and annealed. Binding reactions were set up in a volume of 30 μL and contained a constant concentration of ³²P-labeled probe (0.1 pmol) and increasing concentrations of F12, in a buffer consisting of 10 mM Mops (pH 7.2), 50 mM KCl, 5 mM MgCl₂, 1 mM DTT, 0.03 mg/mL heparin, and 5% glycerol. Binding reactions were set up on ice and incubated at 4° C. for 30 min, after which time 15 μL of each sample was loaded onto a prerun 8% native polyacrylamide gel made up in 0.5× Tris-borate buffer, and electrophoresed (250V, 1 h, 4° C.). The oligonucleotide sequence used for gel shift experiments was […] (SEQ ID NO: 28); the site was mutated by changing the central GGU to CUG.
To determine whether the AGGUAA motif was sufficient for binding, the binding of the double finger construct F12 to a 17-nt RNA oligonucleotide containing a single AGGUAA motif was tested as described in Section 1.4 above with dsDNA, ssDNA, and dsRNA also tested as controls. […] Mutation of the central GGU, which is the most highly-conserved element in the SELEX consensus to CUG, abrogated the interaction, showing that the interaction is sequence specific (FIG. 1B).

In data set [2] the target is T4, ZRANB2-F2 R82Q (Homo sapiens, UniProt O95218 O95218:65-95, R82Q).
T4 chain: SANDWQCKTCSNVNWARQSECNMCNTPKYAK
In words: FP. The note with it: label: 5'-fluorescein (FA) or 32P (gel shift). The protocol: as §1, with “The anisotropy titrations were performed with a starting RNA concentration of 50 nM in a buffer comprising either 10 mM Tris (pH 8.0), 50 mM KCl, 5 mM MgCl₂, 0.05 mg/mL heparin, and 1 mM DTT (for GST fusion constructs) or 10 mM Mops (pH 7.3), 50 mM NaCl, 0.05 mg/mL heparin, and 1 mM DTT (for ZRANB2-F12). RNasin (Promega) was also added to the protein solution to a concentration of 2 units/μL.” left out
(§2) To determine whether changing arginine-82 (R82) would affect the binding preference of ZRANB2-F2 from GGU to GAU, the point mutation R82Q in ZNF 2 of ZRANB2 was made and the ability of both the wild type (W) protein and the R82Q mutant to bind to AGGUAA and AGAUAA was assessed by fluorescence anisotropy binding assays as described previously in Example 1.

In another data set the target is T5, ZRANB2-F2 K72A (Homo sapiens, UniProt O95218 O95218:65-95, K72A).
T5 chain: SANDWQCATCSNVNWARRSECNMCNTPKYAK
In words: FP; much smaller change in affinity. The note with it: label: 5'-fluorescein (FA) or 32P (gel shift). The protocol:
as §1, with “model. […]” for “model.”

The target in another data set is T6, ZRANB2-F2 T73A (Homo sapiens, UniProt O95218 O95218:65-95, T73A).
T6 chain: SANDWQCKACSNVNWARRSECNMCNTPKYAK
In words: FP; much smaller change in affinity. The note with it: label: 5'-fluorescein (FA) or 32P (gel shift). The protocol: as §1, with “model. […]” for “model.”

The target in data set [3] is T3, ZRANB2-F12. In words: competition; strongest competitor in SPR competition. The note with it: tags: GST removed for FA, gel shift and SPR. The protocol:
(§3) Competition binding experiments were carried out by flowing a solution of F12 over a streptavidin chip coated with a biotinylated ssRNA oligonucleotide (containing the sequence AGGUAA) in the presence of an unlabeled competitor oligonucleotide.
Binding experiments were performed in triplicate at 25° C. on a BIACORE 3000 (Biacore). A 5′ biotin-labeled RNA oligonucleotide containing the 5′ splice site from exon 3 of the Tra2β minigene ([…]; SEQ ID NO: 29) was purified by size exclusion chromatography (Superdex 75), and unlabeled competitor oligonucleotides i.e., […] from exon 1 (SEQ ID NO: 30), […] from exon 2 (SEQ ID NO: 31), and […] from exon 3 (SEQ ID NO: 32) were used without further purification. Protein and RNA samples were dialysed into 10 mM sodium phosphate (pH 7.2), 50 mM NaCl, 1 mM DTT, and 0.005% NP20 and filtered. The biotinylated RNA was heated to 65° C. for 5 min, cooled on ice, and then immobilized onto a streptavidin-coated sensor chip to a total of approximately 160 relative units. Solutions of 750 nM F12 in the presence of 1 molar equivalent of each competitor RNA were injected in random order over the sensor chip (at a flow rate of 20 μL/min for 120 sec) and allowed to undergo a 120-sec dissociation time; a further 300-sec interval was allowed between injections. Data were analyzed by using BIA Evaluation software (Biacore). […]

The target in data set [4] is T3, ZRANB2-F12. Nature of the data set: 15N-HSQC titration. The note with it: tags: GST removed for FA, gel shift and SPR; label: 5'-fluorescein. The method, then: In brief, F2 and F12 were dialysed into 25 mM potassium phosphate (pH 7.0), 25 mM NaCl, and 0.5 mM DTT and concentrated to 0.4-1 mM. All spectra were recorded on a Bruker Avance 600 spectrometer equipped with a cryoprobe. 1H, 15N, and 13C assignments were obtained from HNCACB, CB-CA(CO)NH, HCCH-TOCSY, NOESY, and TOCSY spectra acquired at 2° C., 5° C., or 25° C. Dihedral angle restraints were obtained by analysis of an HNHA spectrum as previously described in Vuister G. W. and Bax A. 1993 J Am Chem Soc 115: 7772-7777. NMR data were processed by using XWINNMR/Topspin (Bruker) and analyzed with SPARKY (T. D. Goddard and D. G. Kneller, University of California, San Francisco). The structure of F2 was calculated from NOE and Ø angle constraints (e.g., FIGS. 5 and 9C) by using a protocol as described in Plambeck C. A., et al., 2003 J Biol Chem 278: 22805-22811.
¹⁵N-HSQC titrations were also carried out by using the double finger construct (F12; residues 1-95) and the double site oligonucleotide. AGGUAAAGGUAA (SEQ ID NO: 26). […] This titration (FIG. 9D) gave rise to the same pattern of chemical-shift changes as the two single-finger experiments. Only 3-4 new signals appeared, most likely from linker residues.

Data set [5] deals with T4, ZRANB2-F2 R82Q. Nature of the data set: FP; no preference between G and A at position 3. The note with it: label: 5'-fluorescein. The method, then: as §1, with “The anisotropy titrations were performed with a starting RNA concentration of 50 nM in a buffer comprising either 10 mM Tris (pH 8.0), 50 mM KCl, 5 mM MgCl₂, 0.05 mg/mL heparin, and 1 mM DTT (for GST fusion constructs) or 10 mM Mops (pH 7.3), 50 mM NaCl, 0.05 mg/mL heparin, and 1 mM DTT (for ZRANB2-F12). RNasin (Promega) was also added to the protein solution to a concentration of 2 units/μL.” left out
as §2

The target of data set [6] is T3, ZRANB2-F12. In words: SPR; immobilised RNA; 750 nM F12; 10 mM phosphate pH 7.2, 50 mM NaCl, 25 C. The note with it: tags: GST removed for FA, gel shift and SPR; label: 5'-biotin. The protocol:
as §3
Binding experiments were performed in triplicate at 25° C. on a BIACORE 3000 (Biacore). A 5′ biotin-labeled RNA oligonucleotide containing the 5′ splice site from exon 3 of the Tra2β minigene ([…]; SEQ ID NO: 29) was purified by size exclusion chromatography (Superdex 75), and unlabeled competitor oligonucleotides i.e., […] from exon 1 (SEQ ID NO: 30), […] from exon 2 (SEQ ID NO: 31), and […] from exon 3 (SEQ ID NO: 32) were used without further purification. Protein and RNA samples were dialysed into 10 mM sodium phosphate (pH 7.2), 50 mM NaCl, 1 mM DTT, and 0.005% NP20 and filtered. The biotinylated RNA was heated to 65° C. for 5 min, cooled on ice, and then immobilized onto a streptavidin-coated sensor chip to a total of approximately 160 relative units. Solutions of 750 nM F12 in the presence of 1 molar equivalent of each competitor RNA were injected in random order over the sensor chip (at a flow rate of 20 μL/min for 120 sec) and allowed to undergo a 120-sec dissociation time; a further 300-sec interval was allowed between injections. Data were analyzed by using BIA Evaluation software (Biacore).
On the technique in general: Surface plasmon resonance follows binding to a sensor surface in real time, without labels.

Here are results for five molecules from patent publication US20130022590, “Compositions Comprising Zinc Finger Domains and Uses Therefor” (published 2013).

In the case of GCAACCAGGUAAAGUCU (ssRNA) [17-nt AGGUAA ssRNA], the Ka came to 1e+06 M⁻¹ in the data set with ZRANB2-F2 and 3e+06 M⁻¹ in the data set with ZRANB2-F1. For the same molecule, the binding result with ZRANB2-F12 [1], in the data set with ZRANB2-F2 K72A and with ZRANB2-F2 T73A was “binds” in each case. The binding signal with ZRANB2-F2 R82Q [2] is around 2 fold lower than WT F2.
With CUCUGAAUCUAGGUAAGAAAG (ssRNA) [Tra2-beta exon 3 5' splice site competitor], the binding result with ZRANB2-F12 [3] is “binds”.
AGGUAAAGGUAA (ssRNA) [double site AGGUAAAGGUAA]: the binding result with ZRANB2-F12 [4] is “binds”.
In the case of AGAUAA (ssRNA) [AGAUAA (3A)], the binding signal with ZRANB2-F2 R82Q [5] is ~2 fold higher than WT F2 on same RNA.
In the case of CUCUGAAUCUAGGUAAGAAAG (ssRNA) [Tra2-beta exon 3 5' splice site], the binding result with ZRANB2-F12 [6] is reported as “binds”.
